A value given as a limit tells only on which side of the number the result lay.

This is an account of results in paper PMC5476585.

This test addresses 25-nucleosome array (human).

“Fpr4 FKBP (280-392) (from UniProt Q06205 280-392) (domain or fragment)” had a magnesium-dependent self-association of 25-nucleosome arrays (0.25, 0.5 and 1 mM MgCl2), chromatin in the pellet fraction after centrifugation of more than 90%.
